The values below come from patent US10849966B2, “Methods for treating netosis and neutrophil activation” (TRUSTEES OF BOSTON UNIVERSITY, priority 2017, dated 2020).

Read-outs that look alike come from different tables or passages of the source.

The subject of data set [1] is pancreatic peritoneal metastatic tumors. The data set can be described thus: combination anti-DEspR mAb and gemcitabine in rats with pancreatic peritoneal metastatic tumors. The format is in vivo. Particulars: per rat. As for the experimental part: FIG. 36 depicts representative images of tumor treated rats with combination anti-DEspR mAb and gemcitabine vs gemcitabine alone, and mock-treated saline controls. GEM tx: gemcitabine treatment (100 mg/kg/dose iv×2). Hu-6g8 or ABTM-468: humanized anti-DEspR mAb treatment 1 mg/kg/dose iv×1/week×2. Combo-tx: combination therapy. Saline mock Tx: mock.
The observations of anti-DEspR/gemcitabine synergy supports the potential of anti-DEspR mAb therapy to be a compelling partner for combination with checkpoint inhibitors. […] The paradigm of unique combinatorial synergy was further tested in vivo. […] Moreover, there was no ascites in ComboTx-rats. Gut distention from gut-dysfunction is also evident in saline mock-treated (Tx) control. (FIG. 36).
Importantly, metastasis to the liver and retroperitoneal space, and ascites were all prevented/inhibited by ComboTx.

Data set [2] concerns LPS-induced hemorrhagic encephalopathy in stroke prone rats. The experiment in a line: LPS-induced hemorrhagic encephalopathy / multi-organ failure rat model. The format is in vivo. The source says: FIG. 3A) control rat brain after PBS-buffer perfusion to eliminate intravascular blood.
FIG. 4 depicts a survival curve analysis of anti-DEspR treated rats compared with non-treated rats in a rat model of LPS-induced multi-organ failure manifesting predominantly as hemorrhagic encephalopathy (phenotype corroborated in FIG. 3A-3F).
Neutrophil-mediated tissue injury has been implicated in blood brain barrier disruption or injury.
The murine precursor anti-DEspR antibody, 6g8-mumab, was studied in a rat model of LPS-induced hemorrhagic encephalopathy as a paradigm of multi-organ failure (MOF) in ARDS and sepsis (FIG. 3A-3F).
It was also determined whether anti-DEspR can increase survival of rats in a LPS-induced hemorrhagic encephalopathy MOF rat model.

For data set [3], the system named is LPS-activated neutrophils. The data set can be described thus: ex vivo survival of LPS-activated neutrophils. To be noted: vs control non-treated activated neutrophils, P<0.0001; listed as 6g8. The format is cell-based, rat. The source says:
FIGS. 2A-2B depict DEspR expression on rat activated neutrophils and anti-DEspR inhibition of activated neutrophil survival. FIG. 2A) FACS analysis of CD11b activated neutrophils that are DEspR+(bold oval), and DEspR[−] (bold circle). Quiescent neutrophils are DEspR[−] and CD11B[−] in Quadrant Q4. FIG. 2B depicts inhibition of the extended survival of activated neutrophils by two different anti-DEspR mAbs targeting two different epitopes on DEspR.
DEspR is expressed on activated human neutrophils (FIG. 1A) and in neutrophils undergoing NETosis (FIG. 1C-D), in contrast to isotype control (FIG. 1B). Anti-DEspR mAb detects DEspR expression on rat LPS-activated neutrophils (FIG. 2A). […] Majority of CD11b activated neutrophils are DEspR+(Red bold circle) in contrast to CD11b+ but DEspR(−) (yellow circle) activated neutrophils (FIG. 2A).
Briefly, this anti-DEspR approach is supported by experimental data as outlined below: • 1. Validation of DEspR as target. DEspR is expressed on activated human neutrophils (FIG. 1A,1C,1D). Anti-DEspR immunostaining specificity is shown by no signal in isotype control neutrophils (FIG. 1B). Most human neutrophils undergoing NETosis are DEspR+ (FIG. 1C-1D). NETs (neutrophil extracellular traps) are associated with organ microthrombi in MOF and directly induce endothelial and epithelial cell death,^56 all of which are pathogenic events in ARDS. • 2. […]

Data set [4] deals with T1, DEspR on intact human cells (Homo sapiens, UniProt B0L3A2).
T1 construct: endogenous in cells; host or cells: intact human cells / 'DEspR+ human cells'
T1 sequence (B0L3A2 1-85): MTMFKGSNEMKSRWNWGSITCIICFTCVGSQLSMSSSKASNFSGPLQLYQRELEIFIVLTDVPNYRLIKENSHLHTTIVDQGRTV
The experiment in a line: hu6g8 binding to DEspR on intact human cells. To be noted: done in triplicate. The source says: (§1) FIGS. 17A-17C depict anti-DEspR-mab (hu6g8 mab). FIG. 17A depicts a diagram of DEspR, murine precursor mabs and humanized IgG and IgG4 mabs. Hu6g8 is notated as 6g8g7-hu-IgG4 raised against epitope 2, spanning the putative binding domain.
Described herein is the development, characterization, and validation of a fully humanized anti-DEspR mAb with a S228P hinge-stabilized IgG4/kappa FC region, designated herein as hu-6g8 or […]. The hu-6g8 was designed for high binding affinity to DEspR+ human cells and inhibition of activated neutrophil survival. hu-6g8 is reactive in all species, having identical epitopes in human, primates and rodents, which facilitates preclinical and clinical studies using the therapeutic lead. […] (FIG. 6). Through recombinant DNA technology, hu-6g8 was designed with optimal biophysical properties via: a) avoidance of T-cell epitopes for low immunogenicity—‘deimmunized’, b) optimization of heavy and light chain interactions for stability of variable domains, and c) exclusion of destabilizing post-translational modification sites [deamidation, oxidation, acid-lability, inappropriate N-glycosylation, isomerization and pyroglutamate formation].
Described herein are the advantages of anti-DEspR mAb targeted AECs. DEspR, the dual endothelin1/signal peptide receptor,^9 is a validated target on human activated neutrophils and NETs. […]

The subject of data set [5] is activated neutrophils. The experiment in a line: dose-response survival assay of activated neutrophils (Trypan blue dye exclusion). The format is cell-based. Particulars: for IC50: live cells counted by Trypan blue dye exclusion, read-out: IC50, inhibition of activated neutrophil survival.
Source text: FIG. 6 depicts a graph comparison of functional activity of anti-DEspR fully humanized 6g8 mAb, 6g8-humab, and prototype murine anti-DEspR 6g8 mAb, 6g8-mumab.
as §1
Described herein are the advantages of anti-DEspR mAb targeted AECs. DEspR, the dual endothelin1/signal peptide receptor,^9 is a validated target on human activated neutrophils and NETs. Hu6g8 binds human activated neutrophils (FIG. 18A) and NETs (FIG. 18B), as confirmed by Western Blot analysis of DEspR protein in human kidney (K), and activated neutrophil samples, act-Ns (FIG. 18C). Humanized anti-DEspR-mab (hu6g8 mab) is an ideal targeting moiety. Hu6g8 is the multi-species Human/NHPrimate/Rat reactive humanized-deimmunized anti-DEspR-mab with a hinge-stabilized IgG4S228P/kappa Fc region (FIG. 17A) to avoid (ADCC-antibody dependent cell-mediated cytotoxicity, CDC-complement dependent cytotoxicity), and to eliminate loss of targeting upon Fab arm exchange typical of native IgG4 isotype. […] Through recombinant DNA technology, the antibody design incorporates: a) avoidance of T-cell epitopes for low immunogenicity; b) optimization of heavy and light chain interactions for stability of variable domains; and, c) exclusion of destabilizing post-translational modification sites [e.g., deamidation, oxidation]. The targeting of DEspR^+ NETs, but sparing of DEspR(−) quiescent neutrophils via the anti-DEspR mAb is also novel. […] The use of human neutrophil-elastase cleavable linker is advantageous as this connector-peptide can be added by recombinant technology and HNE is enriched on NETs and actually a reason for the injurious properties of NETs. HNE is desirable for local therapeutic delivery [Owen C A, Campbell E J. J Leukocyte Biol 1999, 65 (2) 137-150], has specificity for small uncharged amino acids particularly alanine (A) and valine (V) [Meers P. Adv Drug Delivery Rev. 2001. 53 (3) 265-272]. […] The advantages of all three in an AEC is novel and robust as the targeted delivery and release of DNAse 1 on NETs can attain in vivo efficacy of what has been shown in vitro, the induction of macrophage uptake-and-clearance of NETs upon DNAse 1 digest of NETs DNA. In summary, targeting the intravascular NETs sites. The humanized anti-DEspR-mab with a hinge-stabilized IgG4/kappa Fc region to avoid Fab arm exchange in vivo and ensuing loss of targeting was selected. Additionally, this avoids immune effector functions of IgG1 mAbs (ADCC, CDC), which would worsen endothelial injury. […]

Turning to `Nc1ccn([C@@H]2O[C@H](CO)[C@@H](O)C2(F)F)c(=O)n1` [GEM, gemcitabine], in data set [1], the Ascites volume was found to be 1.5 mls and the “Tumor weight (g) Greater Omentum” value was 1.6351 g. For the same molecule, in data set [1] (GEM 100 mg/kg/dose iv×2, hu-6g8 1 mg/kg/dose iv×1/week×2), the Ascites entry is “Bloody”.

B1: 6g8-mumab: murine precursor anti-DEspR antibody, pan-species reactive anti-Human/Rat/Monkey DEspR mAb (antibody, V domains shown)
VH: GSEVQLQESGGGLVQPGGSLKLSCAASGFDFSRYWMSWVRQAPGKGLEWIGEINPDSSTINYTPSLKDKFIISRDTAKKTLYLQMSKVRSEDTALYYCARHGRGMDYWSQGTSVTVSSAKTTPPSVYGGGGS
VL: GGGGSDIVLTQTNQIMSASVGDRVSVTCKASQNVDSNVAWYQQKPGHSPKALIYSASYRYSRVPDRITGSGSGTDFTLTITNVQSKDLADYFCQQYHSYPLLAFGAGTKLELKRADAAPTVSLE
One may read the EC50 as the concentration at which the effect is half-maximal. In general, IC50 refers to the concentration needed to halve the response being measured. B1: the “progression to hemorrhagic encephalopathy” value in data set [2] (single dose 1 mg/kg/dose iv after LPS) was “attenuated the progression to life-threatening hemorrhagic encephalopathy”. Moreover, the “murine IgG levels in brain (ELISA of brain membrane proteins)” value in data set [2] (treated rat brains, target engagement) was “greater brain levels than anti-DEspR 10a3”. Besides, in data set [2] (vs non-treated LPS brains), the “neutrophil myeloperoxidase (MPO) levels in the brain (ELISA)” value is “decreased myeloperoxidase levels” and the “rat albumin levels in the brain (ELISA), brain edema” value was “decreased albumin levels”. In addition, the “survival of activated neutrophils ex vivo” value in data set [3] is “decreased their survival”. In data set [4], this molecule yielded a 50% effective concentration (EC50) of 178 nM. Moreover, the IC50 in data set [5] (listed as mu-6g8) was above 198 nM. In addition, in data set [5], the IC50 was above 200 nM. Further, the “IC50, inhibition of activated neutrophil survival” value in data set [5] (maximum dose used in the dose-response survival assay) is above 30 µg/mL.
